Broadly, the Kd is the free concentration of one partner at which half of the binding sites on the other are occupied at equilibrium, for simple one-to-one binding. Read a high Kd as lower affinity.

This passage reports Kd results from paper PMC10197177.

In this data set the test system is BG4 (anti-G-quadruplex antibody). Put plainly: sandwich ELISA. To be noted: K1 pre-bound to immobilized wild-type spike, ELONA: 20 mM Tris, 5 mM KCl, 2 mM MgCl2, 0.5 mM CaCl2, pH 7.4, room temperature, BG4 sandwich ELISA: Methods give 20 mM Tris, 5 mM MgCl2 …. A general note: In an ELISA, binding on a coated surface is turned into a signal by an enzyme label.

In the case of “AATGGATCCACATCTACGAGCTCGAACGCCCGGAGGAGACGGGGGCAGGGCGTGTTCACTGCAGACTTGACGAAGCT [K1 (truncated working aptamer)]”, the Kd was determined as 1.77 nM.
